The values that follow come from the nanobody polyreactivity screen of Harvey et al. (2022).

This data set is described as follows: yeast display, Sf9 membrane polyspecificity reagent, FACS + sequencing; frameworks hold sequencing errors. The method, boiled down: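 A nanobody's polyreactivity label depends on the gate it was sorted from. Yeast display cells were stained with 10% biotinylated, detergent-solubilized Sf9 membrane reagent for 1 hour at 4 °C, enriched on streptavidin microbeads and sorted by FACS. The low and high (top ~1%) gates were set on anti-HA fluorescence for expression and streptavidin fluorescence for reagent binding.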
In the case of “QVQLVESGGGLVQAGGSLRLSCAASGGIFKYNAMGWYRQAPGKERELVAAIDTSGGSTYYADSVKGRFTISRDNAKNTVYLQMNSLKPEDTAVYYCAAELGLAQYYYWGQGTQVTVSS”, the “polyreactivity (PSR sort gate)” value is reported as “low polyreactivity”.

Take “QVQLVESGGGLVQAGGSLRLSCAASGGIFKYNAMGWYRQAPGKERELVAAIDTSGGSTYYADSVKGRFTISRDNAKNTVYLQMNSLKPEDTAVYYCARRWSYQRPSFEYDSWGQGTQVTVSS”: the “polyreactivity (PSR sort gate)” value was “low polyreactivity”.

As to “QVQLVESGGGLVQAGGSLRLSCAASGGIFKYNAMGWYRTAPGKERELVAAIRSSGSTNYADSVKGRFTISRDNAKNTVYLQMNSLKPEETAVYYCNVAYGLQPYDYWGQGTQVNVSS”, the “polyreactivity (PSR sort gate)” value is “high polyreactivity”.

Regarding “QVQLVESGGGLVQAGGSLRLSCAASGGIFLFNAMGWYRQAPGKERELVAAITDGGSTYYADSVKGRFTISRDNAKNTVYLQMNSLKPEDTAVYYCNAEGVSLYGYDSGVDSGEDYWGQGTQVTVSS”, the “polyreactivity (PSR sort gate)” value was “low polyreactivity”.

Take “QVQLVESGGGLVQAGGSLRLSCAASGGIFLGNAMGWYRQAPGKERELVAAISWSGGSTYYADSVKGRFTISRDNAKNTVYLQMNSLKPEDTAVYYCAAAWNRGKYNYYYWGQGTQVTVSS”: the “polyreactivity (PSR sort gate)” value is given as “high polyreactivity”.

Regarding “QVQLVESGGGLVQAGGSLRLSCAASGGIFLSNAMGWSRQAPGKERELVAAISRSGGSTYYADSVKGRFTISRDNAKNTVYLQMNSLKPEDTAVYYCAARWTRNYGMNYWGQGTKVTVSS”, the “polyreactivity (PSR sort gate)” value is given as “high polyreactivity”.

With “QVQLVESGGGLVQAGGSLRLSCAASGGIFLVYAMGWYRQAPGKERELVAAITPGGSTYYADSVKGRFTISRDNAKNTVYLQMNSLKPEDTAVYYCAKALYRREYSSGGYYRFDYWGQGTQVTVSS”, the “polyreactivity (PSR sort gate)” value is recorded as “high polyreactivity”.

Take “QVQLVESGGGLVQAGGSLRLSCAASGGIFPAYAMGWYRQSPGKERELVASISANGGRTYYADSVKGRFTISRDNAKNSVYLQLNSLKPEDTAVYYCNASYRSGSWRFYYWGQGTQVTVSS”: the “polyreactivity (PSR sort gate)” value is “high polyreactivity”.

In the case of “QVQLVESGGGLVQAGGSLRLSCAASGGIFPQYSMGWYTQAPGKERELVSAISRRGGRTYYADSVKGRFTISRDTAKNTVYLQMNSLKPEDTAVYYCAKRALTYTRYRVIYDYWGQGTQVTVSS”, the “polyreactivity (PSR sort gate)” value was “high polyreactivity”.

On to “QVQLVESGGGLVQAGGSLRLSCAASGGIFPYYVMGWYRQAPGKERELVAAINSGGTTYYADSVKGRFTISRDNAKNTVYLQMNSLKPEDTAVYYCAAYYAGFGYNYWGQGTQVTVSS”, for which the “polyreactivity (PSR sort gate)” value is listed as “low polyreactivity”.

Consider “QVQLVESGGGLVQAGGSLRLSCAASGGIFQGYAMGWYRQAAGKERELVAAITRGGSTNYADSVKGRFTISRDNAKNTVYLQMNSLKPEDTAVYYFAARPRWFKGYDYWGQGTQVTVSS”, for which the “polyreactivity (PSR sort gate)” value is “high polyreactivity”.

Consider “QVQLVESGGGLVQAGGSLRLSCAASGGIFRANTMGWYRQAPGKERELVAVISWSGARTYYADSVKGRFTISRDNAKNTVYLQMNSLKPEDTAVYYCNARVPKLGSMYYWGHGTQVTVSS”, for which the “polyreactivity (PSR sort gate)” value was “high polyreactivity”.

As to “QVQLVESGGGLVQAGGSLRLSCAASGGIFRGYAMGWYRQAPGKERELVAAISSRDGRTYYADSVKGRFTISRDNEKNTVYLQMNSLKPEDTAVYYCAASSFNNGHRYDYWGQGTQVTVSS”, the “polyreactivity (PSR sort gate)” value is “high polyreactivity”.

“QVQLVESGGGLVQAGGSLRLSCAASGGIFRRYAMVWYRQAPGKERELVAGISYSGGSTYYADSVKGRFTISRDNAKNTVYLQMNSLKPEDTAVDYCATVGYVWYRSVNVWSPMDYWGQGTQVTVSS”: the “polyreactivity (PSR sort gate)” value is “high polyreactivity”.

As for “QVQLVESGGGLVQAGGSLRLSCAASGGIFRSYAMGWYRQAPGKETELVAAISWSTVSTYADSVKGRFTISRDNAKNTVYLQMYSLKPEDSAVYYCAASPFEYCYYYYGLYKEYYYWGQGNQVTVSS”, the “polyreactivity (PSR sort gate)” value was “low polyreactivity”.

On to “QVQLVESGGGLVQAGGSLRLSCAASGGIFRSYTMGWYRQAPGKERELVAAISSGASTSYADSVKGRFTISRDNAKNTVYLQMNSLKPEHTAVYYCAVGVLYAGYFYRYRYYYWGQGTQVTVSS”, for which the “polyreactivity (PSR sort gate)” value is “high polyreactivity”.

With “QVQLVESGGGLVQAGGSLRLSCAASGGIFRWYVMGWYRPEPGKERDFVAAISQSGGSTYYADSVKGRFTISRDNAKNTVYLQMNCLKPEDTAVYYCAAGFYHYRSFNFDYWGQGTQVTVSS”, the “polyreactivity (PSR sort gate)” value is listed as “high polyreactivity”.

Turning to “QVQLVESGGGLVQAGGSLRLSCAASGGIFSAYDMAWYRQAPGKERELVAAINSGGSTNYADSVKGRFTISRDNAKNTVYLQMNSLKPEDTAVYYCAAAKVSWFGLKYYYWGQGTQVTVSS”, the “polyreactivity (PSR sort gate)” value is reported as “high polyreactivity”.

With “QVQLVESGGGLVQAGGSLRLSCAASGGIFSENAMGWYRQAPGKERELVAVITTSGGSTYYADSVKGRFTISRDNAKNTVYLQMNSLKPEDTAVYYCAADVLSWEYDYWGQGTQVTVSS”, the “polyreactivity (PSR sort gate)” value was “low polyreactivity”.

As for “QVQLVESGGGLVQAGGSLRLSCAASGGIFSPNAMGWYRQAHGKERELVASISSNGGSTNYADSVKGRFTISRDNAKNTVYLQMNSLKPEDTAVYYCAGLQKRRSYWRPFYWGQGTQVTVSS”, the “polyreactivity (PSR sort gate)” value is listed as “low polyreactivity”.

Turning to “QVQLVESGGGLVQAGGSLRLSCAASGGIFSPNAMGWYRQAPGKERELVAAISSNGGSTNYADSVKGRFTISRDNAKNTVYLQMNSLKPEDTAVYYCAGLQKRRSYWRPFYWGQGTQVTVSS”, the “polyreactivity (PSR sort gate)” value is given as “low polyreactivity”.

For “QVQLVESGGGLVQAGGSLRLSCAASGGIFSSYAMGWYRQAPGKERELVATITSRGGSTYYADSVKGRFTISRDNAKNTVYLQMNSLKPEDTAVYYCAKEYRYYRRRYDYWGQGTQVTVSS”, the “polyreactivity (PSR sort gate)” value was “high polyreactivity”.

“QVQLVESGGGLVQAGGSLRLSCAASGGIFSTYTMGWYRQAPGKERELVAAISQSGGTTYYADSVKGRFTISRDNAKNTVYLQMNSLKPEDTAVYYCAAEPTQADYDYWGQGTQVTVSS”: the “polyreactivity (PSR sort gate)” value is reported as “low polyreactivity”.

On to “QVQLVESGGGLVQAGGSLRLSCAASGGIFVQYTMGWYRQAPGKERELVAAISTGGSTYYADSVKGRFTISRDNAKNTVYLQMNSLKPEDTAVYYCAVVYRSQYSRYTSQWKEYYWGQGTQVTVSS”, for which the “polyreactivity (PSR sort gate)” value is listed as “low polyreactivity”.

For “QVQLVESGGGLVQAGGSLRLSCAASGGIFVRYAMGVYRQAPGKERELVAAITGTGSSTYYADSVKGRFTISRDNAKNTVYLQMNSLKPEDTAVYYCAAARYSNYGYWGQGTQVTVSS”, the “polyreactivity (PSR sort gate)” value is recorded as “high polyreactivity”.

Regarding “QVQLVESGGGLVQAGGSLRLSCAASGGIFWANAMGWHRQAPRKERELVATIHTIGDGTNYADSVKGRFTISRDNAKNTVYLQMNSLKPEDTAVYYCAAPYYYFAVYYGYIFEYDYWGQGTQVTVSS”, the “polyreactivity (PSR sort gate)” value is given as “low polyreactivity”.

With “QVQLVESGGGLVQAGGSLRLSCAASGGIFYHNAMGWYRQAPGKERELVAAISGRGGRTYYADSVKGRFTISRDNAKNTVYLPMNSLKPEDTAVYYCNAVVYSPYRYEYWGQGTQVTVSS”, the “polyreactivity (PSR sort gate)” value is listed as “low polyreactivity”.

Regarding “QVQLVESGGGLVQAGGSLRLSCAASGGIFYHNAMGWYRQAPGKERELVAAISGRGGRTYYADSVKGRFTISRDNAKNTVYLQMNSLKPEDTAVYYCAAGGQARHDYWGQGTQVTVSS”, the “polyreactivity (PSR sort gate)” value was “low polyreactivity”.

Consider “QVQLVESGGGLVQAGGSLRLSCAASGGIFYINAMGWYRQAPGKERELVAAISRDGTITYYADSVKGRFTISRDNAKNTVYLQMNSLKPEDTAVYYCAADASIQSWYSIYDYWGQGTQVTVSS”, for which the “polyreactivity (PSR sort gate)” value is recorded as “high polyreactivity”.

As to “QVQLVESGGGLVQAGGSLRLSCAASGGIFYLYAMGWYRQAPGKERELVASINWRSASTYYADSVKGRFTISRDNAKNTVYFQMNSLKPEDTAVYYCNVQWYGGYDYWGQGTQVTVSS”, the “polyreactivity (PSR sort gate)” value was “low polyreactivity”.

Turning to “QVQLVESGGGLVQAGGSLRLSCAASGGIFYNYAMGWYIQAPGKERELVAAITYSGVRTNYADSVKGRFTISRDNAKNTVYLQMNSLKPEDTAVYYCNAAVVYVKMDYWGQGTQVTVSS”, the “polyreactivity (PSR sort gate)” value is reported as “low polyreactivity”.

In the case of “QVQLVESGGGLVQAGGSLRLSCAASGGIFYPNAMGWYRQAPAKERELVAANTSGGSTSYADSVKGRFTISRDNAKDTVYLQMNSLKPEDTAVYYCAASTTAYAYVNYGSWGQGTQVTVSS”, the “polyreactivity (PSR sort gate)” value is “low polyreactivity”.

Turning to “QVQLVESGGGLVQAGGSLRLSCAASGGIFYSNAMGWYRPAPGKERELVAAISSSGGSTYYADSVKGRFTISRDNAKNTVYLQMNSLKPEDTAVYYCAARPTVRPVVRFGYWGQGTQVTVSS”, the “polyreactivity (PSR sort gate)” value is “high polyreactivity”.

As for “QVQLVESGGGLVQAGGSLRLSCAASGGIFYSNGMGWYRQAPGKERELVAAITGGDITDYADSVKGRFTISRDNAKNTVYLQMNSLKPEDTAVYFCAVESYPPDYGPRFGSWGQGTQVTVSS”, the “polyreactivity (PSR sort gate)” value is recorded as “low polyreactivity”.

Take “QVQLVESGGGLVQAGGSLRLSCAASGGIFYTNAMGWYRQAPGKERELVAAISRSGGSTYYADSVKGRFTISRDNAKNTVYLQMNSLKPEDTAVYYCAARVYVYGYSYDYWGQGTQVTVSS”: the “polyreactivity (PSR sort gate)” value is listed as “high polyreactivity”.

With “QVQLVESGGGLVQAGGSLRLSCAASGGIFYYYAMGWYRQAPGKERELVATISNGGSTYYADSVKGRFTISRDNAKNTVYLQMNSLKPEDTAVYYCAADSSSDQYRYFPFDHWGQGTQVTVSS”, the “polyreactivity (PSR sort gate)” value is listed as “high polyreactivity”.

For the sequence “QVQLVESGGGLVQAGGSLRLSCAASGGIFYYYTMGWYRQAPGKERELVAAINWSGGSTYYADSVKGRFTISRDNAKNTVYLQMNSLKPEDTAVYYCNAVYRHPVTYGYWGQGTQVTVSS”, the “polyreactivity (PSR sort gate)” value is “high polyreactivity”.

With “QVQLVESGGGLVQAGGSLRLSCAASGGIITYYDMGWYSQAPGKDREFVAAINVSGTRTYYADSVKGRFTISRDNAKNTVYLEMNSLKPEDTAVYYGATRYRVGFFSWYDYWGQGTQVTVSS”, the “polyreactivity (PSR sort gate)” value is given as “high polyreactivity”.

Turning to “QVQLVESGGGLVQAGGSLRLSCAASGGILDTYAMGWYRQAPGKERELVAAITSGGNTNYADSVKGRFTISRDNAKNTVYLQMNSLKPEDSAVYYCNVVTWYYVFRPWEYEYWGQGTQVTVSS”, the “polyreactivity (PSR sort gate)” value was “low polyreactivity”.

For “QVQLVESGGGLVQAGGSLRLSCAASGGILDTYAMGWYRQAPGKERELVAAITSGGNTNYADSVKGRFTISRDNAKNTVYLQMNSLKPEDTAVYYCNVVTWYYVFRPWEYDYWGQGTQVTVSS”, the “polyreactivity (PSR sort gate)” value is reported as “low polyreactivity”.

Regarding “QVQLVESGGGLVQAGGSLRLSCAASGGILETNAMGWYRQAPGKERELVAAIDFSAGSTYYADSVKGRFTISRDNAKNTVYLQMNSLKPEDTAVYYCATRLGVLYDYWGQGTQVTVSS”, the “polyreactivity (PSR sort gate)” value is “low polyreactivity”.
